Among the data in ChEMBL document CHEMBL1156444, “Structure-based design, synthesis, evaluation, and crystal structures of transition state analogue inhibitors of inosine monophosphate cyclohydrolase” (J Biol Chem, 2007) are Km values, retold here.

Substrate in the data set: NC(=O)c1ncn([C@@H]2O[C@H](COP(=O)(O)O)[C@@H](O)[C@H]2O)c1N
The settings on record: Homo sapiens.

Description: Activity of human wild-type ATIC assessed as IMPCH activity

B1: Bifunctional purine biosynthesis protein ATIC (Homo sapiens), P31939 (protein)
chain: MAPGQLALFSVSDKTGLVEFARNLTALGLNLVASGGTAKALRDAGLAVRDVSELTGFPEMLGGRVKTLHPAVHAGILARNIPEDNADMARLDFNLIRVVACNLYPFVKTVASPGVTVEEAVEQIDIGGVTLLRAAAKNHARVTVVCEPEDYVVVSTEMQSSESKDTSLETRRQLALKAFTHTAQYDEAISDYFRKQYSKGVSQMPLRYGMNPHQTPAQLYTLQPKLPITVLNGAPGFINLCDALNAWQLVKELKEALGIPAAASFKHVSPAGAAVGIPLSEDEAKVCMVYDLYKTLTPISAAYARARGADRMSSFGDFVALSDVCDVPTAKIISREVSDGIIAPGYEEEALTILSKKKNGNYCVLQMDQSYKPDENEVRTLFGLHLSQKRNNGVVDKSLFSNVVTKNKDLPESALRDLIVATIAVKYTQSNSVCYAKNGQVIGIGAGQQSRIHCTRLAGDKANYWWLRHHPQVLSMKFKTGVKRAEISNAIDQYVTGTIGEDEDLIKWKALFEEVPELLTEAEKKEWVEKLTEVSISSDAFFPFRDNVDRAKRSGVAYIAAPSGSAADKVVIEACDELGIILAHTNLRLFHH
As to B1, the Km (commonly the concentration of substrate that gives half-maximal velocity) came to 1.9 µM.
